Laboratory results as given in US7807396.

Experiments:
[1] = target: Aβ added to the cultures at 10 µM in a non-fibrillar state; assay: cell-based or functional assay
[2] = target: human β-endorphin1-31 (human) (UniProt P01189); assay: cell-based or functional assay
[3] = target: amyloid beta peptide Aβ1-40; assay: cell-based or functional assay
[4] = target: dynorphin B-9 (UniProt P01213)

Sequence of human β-endorphin1-31 (human) (P01189 237-267 limits assumed): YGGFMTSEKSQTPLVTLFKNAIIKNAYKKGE

“human neprilysin expressed from a lentiviral construct in primary neuronal cultures of neprilysin deficient mice (from UniProt P08473 2-750) (enzyme)” showed a survival of neuronal cells subjected to Aβ induced neurotoxicity (% increase in cell survival) [1] of 75.

“insulysin purified from a thymoma cell line, EL-4 (from UniProt Q9JHR7 42-1019) (enzyme)” was tested, and the specific activity of enzyme purified from a thymoma cell line, EL-4 [2] was 3.3 µmols/min/mg.

“recombinant rat insulysin with an N-terminal His6 affinity tag, expressed in baculovirus-infected Sf9 cells (from UniProt P35559 42-1019) (enzyme)” showed an inhibition of deposition of 125I-Aβ1-40 onto pre-deposited Aβ1-40 (% inhibition with 50 ng of insulysin) [3] of 50.

For trypsin, the “trypsin hydrolysis of the fluorogenic peptide Abz-GGFLRKHGQ-EDDnp (SEQ ID NO: 14)” value [4] was “trypsin hydrolysis of the same peptide showed inhibition, not activation, by dynorphin B-9”.
